From US20070141052A1

Key:
[1] = target: biotin-labeled soluble FcRn; assay: ELISA: biotinylated soluble FcRn on NeutrAvidin plate, IgG supernatant at pH 6.0, anti-human Fab-HRP detection; settings: scale: % of wild type
[2] = target: biotin-labeled soluble FcRn; assay: ELISA: biotinylated soluble FcRn on NeutrAvidin plate, IgG supernatant at neutral pH, anti-human Fab-HRP detection; settings: scale: % of wild type
[3] = target: soluble human FcγRIII (human) (UniProt P08637); assay: antigen-capture ELISA: IgG captured on PSA-coated plate, biotinylated soluble human FcγR, NeutrAvidin-AP; background-subtracted, normalized to parent
[4] = target: soluble human FcγRIIb (human) (UniProt P31994); assay: as above
[5] = target: soluble human FcγRIIa (human) (UniProt P12318); assay: as above
[6] = target: soluble human FcγRIII (human) (UniProt P08637); assay: antigen-capture ELISA as for Tables 3-5 but with an anti-TNFα parent IgG; biotinylated soluble human FcγR; normalized to parent
[7] = target: soluble human FcγRIIb (human) (UniProt P31994); assay: as above

Chain of UniProt P31994 (P31994 43-217): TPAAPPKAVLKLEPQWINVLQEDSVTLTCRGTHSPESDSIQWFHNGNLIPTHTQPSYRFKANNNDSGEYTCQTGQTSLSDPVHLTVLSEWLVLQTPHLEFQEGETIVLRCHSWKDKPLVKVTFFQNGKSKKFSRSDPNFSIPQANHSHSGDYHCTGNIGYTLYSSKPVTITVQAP
Chain of UniProt P08637 (P08637 17-208): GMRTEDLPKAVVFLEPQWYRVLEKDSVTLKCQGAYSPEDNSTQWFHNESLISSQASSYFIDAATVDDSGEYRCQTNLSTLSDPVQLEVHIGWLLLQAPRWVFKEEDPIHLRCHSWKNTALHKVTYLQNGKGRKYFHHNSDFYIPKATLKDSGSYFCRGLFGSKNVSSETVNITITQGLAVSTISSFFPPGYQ
Chain of UniProt P12318 (P12318 34-217): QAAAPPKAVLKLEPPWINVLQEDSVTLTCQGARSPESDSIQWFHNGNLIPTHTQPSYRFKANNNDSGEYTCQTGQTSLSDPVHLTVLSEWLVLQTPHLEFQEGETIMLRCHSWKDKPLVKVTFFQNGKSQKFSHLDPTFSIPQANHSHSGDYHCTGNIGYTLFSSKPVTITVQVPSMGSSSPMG

Substance | FcRn 6.0 [1] | FcRn 7.0 [2] | relative FcγRIII (relative to parental antibody (=1.0)) [3] | relative FcγRIIb (relative to parental antibody (=1.0)) [4] | also measured
anti-CD20 IgG Fc variant D280A (antibody) | 71 | 51 | – | – | –
anti-CD20 IgG Fc variant D280H (antibody) | 91 | 90 | – | – | –
anti-CD20 IgG Fc variant D280K (antibody) | 145 | 131 | – | – | –
anti-CD20 IgG Fc variant D280N (antibody) | 93 | 61 | – | – | –
anti-CD20 IgG Fc variant D280T (antibody) | 82 | 23 | – | – | –
anti-CD20 IgG Fc variant K290D (antibody) | 154 | 25 | – | – | –
anti-CD20 IgG Fc variant K290N (antibody) | 130 | 17 | – | – | –
anti-CD20 IgG Fc variant K290P (antibody) | 146 | 34 | – | – | –
anti-CD20 IgG Fc variant K290T (antibody) | 148 | 8 | – | – | –
anti-CD20 IgG Fc variant K290V (antibody) | 149 | 73 | – | – | –
anti-PSA IgG Fc variant E294N (antibody) | – | – | 1.14 | 0.672 | –
anti-PSA IgG Fc variant Q295K (antibody) | – | – | 1.47 | 0.892 | –
anti-PSA IgG Fc variant Q295L (antibody) | – | – | 1.06 | 1.34 | relative FcγRIIa (relative to parental antibody (=1.0)) [5]: 1.44
anti-PSA IgG Fc variant S298D (antibody) | – | – | 2.31 | 0.188 | –
anti-PSA IgG Fc variant S298N (antibody) | – | – | 1.42 | 0.363 | –
anti-PSA IgG Fc variant S298V (antibody) | – | – | 2.8 | 0.592 | –
anti-PSA IgG Fc variant Y300I (antibody) | – | – | 1.38 | 1.26 | –
anti-PSA IgG Fc variant Y300L (antibody) | – | – | 1.81 | 1.36 | –
anti-TNFα IgG Fc variant D280H (antibody) | – | – | – | – | relative FcγRIII (relative to parental antibody (=1.0)) [6]: 1.24; relative FcγRIIb (relative to parental antibody (=1.0)) [7]: 0.92
anti-TNFα IgG Fc variant D280Q (antibody) | – | – | – | – | relative FcγRIII (relative to parental antibody (=1.0)) [6]: 1.19; relative FcγRIIb (relative to parental antibody (=1.0)) [7]: 0.87
anti-TNFα IgG Fc variant D280Y (antibody) | – | – | – | – | relative FcγRIII (relative to parental antibody (=1.0)) [6]: 1.23; relative FcγRIIb (relative to parental antibody (=1.0)) [7]: 2.14
anti-TNFα IgG Fc variant K290G (antibody) | – | – | – | – | relative FcγRIII (relative to parental antibody (=1.0)) [6]: 1.64; relative FcγRIIb (relative to parental antibody (=1.0)) [7]: 1.46
anti-TNFα IgG Fc variant K290S (antibody) | – | – | – | – | relative FcγRIII (relative to parental antibody (=1.0)) [6]: 1.23; relative FcγRIIb (relative to parental antibody (=1.0)) [7]: 1.4
